According to patent US20050261179:

Columns and labels:
[1] = biological target: T1, adrenomedullin (synthetic human AM)
T1 chain: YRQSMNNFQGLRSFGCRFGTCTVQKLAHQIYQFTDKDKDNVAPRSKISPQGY

[2] = biological target: T2, human complement factor H, P08603
T2 chain: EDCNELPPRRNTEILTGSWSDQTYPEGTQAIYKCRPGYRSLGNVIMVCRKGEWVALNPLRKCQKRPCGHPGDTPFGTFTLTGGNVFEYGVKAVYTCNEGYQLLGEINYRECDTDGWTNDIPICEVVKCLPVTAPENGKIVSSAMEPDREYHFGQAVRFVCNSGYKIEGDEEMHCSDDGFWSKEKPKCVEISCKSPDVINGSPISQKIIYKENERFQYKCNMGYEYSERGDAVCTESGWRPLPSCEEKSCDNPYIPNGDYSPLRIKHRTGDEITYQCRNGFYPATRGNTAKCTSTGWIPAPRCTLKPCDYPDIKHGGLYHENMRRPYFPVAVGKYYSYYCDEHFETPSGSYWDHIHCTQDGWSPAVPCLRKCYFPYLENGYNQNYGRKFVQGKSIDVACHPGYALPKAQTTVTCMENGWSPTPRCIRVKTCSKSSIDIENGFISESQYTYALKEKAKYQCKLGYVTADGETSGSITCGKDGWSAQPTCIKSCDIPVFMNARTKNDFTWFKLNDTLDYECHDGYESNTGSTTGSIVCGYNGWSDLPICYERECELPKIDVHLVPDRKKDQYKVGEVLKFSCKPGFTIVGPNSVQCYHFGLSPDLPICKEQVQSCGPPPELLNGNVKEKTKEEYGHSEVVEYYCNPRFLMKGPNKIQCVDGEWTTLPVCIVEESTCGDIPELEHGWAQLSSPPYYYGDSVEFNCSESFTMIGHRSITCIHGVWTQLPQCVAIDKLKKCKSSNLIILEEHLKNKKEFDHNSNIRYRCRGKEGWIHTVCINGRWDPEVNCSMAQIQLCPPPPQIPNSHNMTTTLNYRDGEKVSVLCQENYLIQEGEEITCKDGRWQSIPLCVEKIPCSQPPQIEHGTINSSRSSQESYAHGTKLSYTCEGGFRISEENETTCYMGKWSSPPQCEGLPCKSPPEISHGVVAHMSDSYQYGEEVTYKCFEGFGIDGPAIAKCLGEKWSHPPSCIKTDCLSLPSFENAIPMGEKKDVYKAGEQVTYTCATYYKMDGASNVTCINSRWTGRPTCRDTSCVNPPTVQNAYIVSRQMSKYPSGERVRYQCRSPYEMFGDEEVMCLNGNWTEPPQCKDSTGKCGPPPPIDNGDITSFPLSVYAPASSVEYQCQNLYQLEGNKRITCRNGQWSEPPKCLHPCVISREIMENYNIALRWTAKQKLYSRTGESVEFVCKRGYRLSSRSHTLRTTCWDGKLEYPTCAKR

B1: human recombinant MMP-2 (protein)
chain: YNFFPRKPKWDKNQITYRIIGYTPDLDPETVDDAFARAFQVWSDVTPLRFSRIHDGEADIMINFGRWEHGDGYPFDGKDGLLAHAFAPGTGVGGDSHFDDDELWTLGEGQVVRVKYGNADGEYCKFPFLFNGKEYNSCTDTGRSDGFLWCSTTYNFEKDGKYGFCPHEALFTMGGNAEGQPCKFPFRFQGTSYDSCTTEGRTDGYRWCGTTEDYDRDKKYGFCPETAMSTVGGNSEGAPCVFPFTFLGNKYESCTSAGRSDGKMWCATTANYDDDRKWGFCPDQGYSLFLVAAHEFGHAMGLEHSQDPGALMAPIYTYTKNFRLSQDDIKGIQELYGASPDIDLGTGPTPTLGPVTPEICKQDIVFDGIAQIRGEIFFFKDRFIWRTVTPRDKPMGPLLVATFWPELPEKIDAVYEAPQEEKAVFFAGNEYWIYSASTLERGYPKPLTSLGLPPDVQRVDAAFNWSKNKKTYIFAGDKFWRYNEVKKKMDPGFPKLIADAWNAIPDNLDAVVDLQGGGHSYFFKGAYYLKLENQSLKSVKFGSIKSDWLGC
[1]
  AM fragments generated by MMP-2 digestion (mass spectrometry of HPLC peaks): These include AM(8-52), AM(11-52), AM(23-52), AM(29-52), AM(11-28), and AM(11-22)
  degradation of synthetic AM (gel, HPLC, mass spectrometry): MMP-2 rapidly cleaves synthetic AM in a time-dependent manner
[2]
  degradation of factor H (gel): is not a substrate for either one of the MMPs
